This note sets out measurements from PMC6488583.

The target of assay [1] is full-length human fibronectin (UniProt P02751). Briefly: ELISA. The following applies: parent: est. 0.29; read off a plot.
Assay [2] shares this target. Briefly: SPR; Biacore T200; FN amine-coupled to a CM5 chip (1000 RU and 5000 RU); α^UpaB 0.8–100 µM injected; 25 °C, PBS-T (PBS pH 7.4, 0.05% Tween 20); steady-state affinity model; apparent.

full-length human fibronectin, sequence (P02751 32-2477): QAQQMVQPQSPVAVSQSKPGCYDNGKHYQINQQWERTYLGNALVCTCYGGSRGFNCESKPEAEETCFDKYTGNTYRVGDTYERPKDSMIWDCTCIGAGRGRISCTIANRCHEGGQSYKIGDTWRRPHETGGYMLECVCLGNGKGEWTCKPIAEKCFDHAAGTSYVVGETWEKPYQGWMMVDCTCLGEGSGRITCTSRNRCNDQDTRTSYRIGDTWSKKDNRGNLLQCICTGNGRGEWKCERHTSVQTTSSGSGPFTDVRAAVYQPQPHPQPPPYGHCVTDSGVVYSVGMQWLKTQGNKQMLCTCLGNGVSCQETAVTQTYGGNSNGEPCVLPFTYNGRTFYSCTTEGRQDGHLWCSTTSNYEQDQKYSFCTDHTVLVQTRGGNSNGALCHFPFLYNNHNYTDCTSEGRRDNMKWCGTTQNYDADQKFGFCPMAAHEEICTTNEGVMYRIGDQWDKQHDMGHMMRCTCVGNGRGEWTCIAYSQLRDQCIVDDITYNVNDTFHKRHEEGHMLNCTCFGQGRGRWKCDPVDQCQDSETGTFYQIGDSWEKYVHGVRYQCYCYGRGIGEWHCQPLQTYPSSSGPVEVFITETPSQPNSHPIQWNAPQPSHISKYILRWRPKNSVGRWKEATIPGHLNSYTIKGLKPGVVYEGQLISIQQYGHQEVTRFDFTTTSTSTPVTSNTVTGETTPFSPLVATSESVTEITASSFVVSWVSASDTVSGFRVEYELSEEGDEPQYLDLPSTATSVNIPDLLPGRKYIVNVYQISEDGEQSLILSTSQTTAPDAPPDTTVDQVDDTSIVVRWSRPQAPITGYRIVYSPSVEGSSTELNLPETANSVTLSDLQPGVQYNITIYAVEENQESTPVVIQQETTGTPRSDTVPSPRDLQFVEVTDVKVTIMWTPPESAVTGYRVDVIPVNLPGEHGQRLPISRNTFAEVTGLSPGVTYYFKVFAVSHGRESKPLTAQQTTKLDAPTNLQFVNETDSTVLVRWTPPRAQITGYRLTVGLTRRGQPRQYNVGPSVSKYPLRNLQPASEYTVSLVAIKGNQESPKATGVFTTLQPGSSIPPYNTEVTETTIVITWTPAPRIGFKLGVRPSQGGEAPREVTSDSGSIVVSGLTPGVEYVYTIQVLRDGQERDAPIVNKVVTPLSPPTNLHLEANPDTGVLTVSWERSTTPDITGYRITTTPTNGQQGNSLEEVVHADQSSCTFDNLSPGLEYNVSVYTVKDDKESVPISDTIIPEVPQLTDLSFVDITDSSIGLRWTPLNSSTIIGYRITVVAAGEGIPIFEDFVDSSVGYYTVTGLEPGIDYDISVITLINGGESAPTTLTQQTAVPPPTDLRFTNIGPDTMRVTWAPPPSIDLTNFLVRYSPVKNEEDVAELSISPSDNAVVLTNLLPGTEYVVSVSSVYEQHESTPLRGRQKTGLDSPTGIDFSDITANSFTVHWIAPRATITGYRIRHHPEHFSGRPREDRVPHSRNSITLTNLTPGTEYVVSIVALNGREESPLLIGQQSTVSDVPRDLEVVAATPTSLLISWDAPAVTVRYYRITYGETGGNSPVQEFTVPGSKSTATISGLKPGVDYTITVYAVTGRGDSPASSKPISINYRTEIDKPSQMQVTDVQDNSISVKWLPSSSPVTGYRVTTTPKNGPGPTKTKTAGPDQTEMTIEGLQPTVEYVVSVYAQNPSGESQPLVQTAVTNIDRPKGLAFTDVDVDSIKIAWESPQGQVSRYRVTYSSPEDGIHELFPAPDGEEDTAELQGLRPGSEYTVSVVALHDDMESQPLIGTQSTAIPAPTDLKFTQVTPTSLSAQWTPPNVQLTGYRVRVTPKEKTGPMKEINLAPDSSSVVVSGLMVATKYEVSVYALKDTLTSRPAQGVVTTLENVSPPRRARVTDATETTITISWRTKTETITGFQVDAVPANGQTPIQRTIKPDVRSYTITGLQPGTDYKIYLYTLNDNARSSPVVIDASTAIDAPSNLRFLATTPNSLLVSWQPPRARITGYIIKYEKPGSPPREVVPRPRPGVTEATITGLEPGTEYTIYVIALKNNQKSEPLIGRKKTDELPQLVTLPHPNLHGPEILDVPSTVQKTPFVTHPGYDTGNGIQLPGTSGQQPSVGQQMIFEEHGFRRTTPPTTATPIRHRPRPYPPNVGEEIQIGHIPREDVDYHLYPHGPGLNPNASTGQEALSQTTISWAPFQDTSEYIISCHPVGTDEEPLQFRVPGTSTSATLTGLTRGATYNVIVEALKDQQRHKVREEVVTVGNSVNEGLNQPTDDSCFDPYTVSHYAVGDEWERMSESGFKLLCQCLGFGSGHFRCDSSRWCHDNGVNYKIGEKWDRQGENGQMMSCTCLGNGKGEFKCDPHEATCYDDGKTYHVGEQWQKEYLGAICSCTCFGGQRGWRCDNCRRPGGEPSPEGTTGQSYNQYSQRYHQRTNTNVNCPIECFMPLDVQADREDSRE

As for “UpaB α-domain (α^UpaB), residues 38–500, from UPEC CFT073 F101A; Y130A; Y187A; F195A; L201G; L202G; Y260A”, the response (Absorbance at 405 nm) in assay [1] turned out to be 0.21.
The same measure, in the same setting: the value for “UpaB α-domain (α^UpaB), residues 38–500, from UPEC CFT073 E165A; N189A; Q197A; N200A; Q203A; K256A; N316A” was 0.33; that for “UpaB α-domain (α^UpaB), residues 38–500, from UPEC CFT073 N116A; D119A; N146A; N175A; D217A; K245A; D246A; D281A; R310A; D336A” was 0.039.
Regarding “UpaB α-domain (α^UpaB), residues 38–500, from UPEC CFT073 (domain or fragment; other documents disagree on this pair)”, the Kd in assay [2] is 45.2 µM.
Consider “UpaB α-domain (α^UpaB), residues 38–500, from UPEC CFT073 E103A; D138A; E165A; E226A”, for which, in assay [1], the response (Absorbance at 405 nm) is 0.27.
